The target in data set [1] is T1, peptide CSLGEQQYSV (SEQ ID NO: 17), Example 5.
T1 chain: CSLGEQQYSV

In data set [2] the target is T2, peptide CALLPAVPSL (SEQ ID NO: 16), Example 3.
T2 chain: CALLPAVPSL

Data set [3] concerns the target T3, peptide CRVPGVAPTL (SEQ ID NO: 18), Example 4.
T3 chain: CRVPGVAPTL

Data on one protein can be found in patent publication US20190030149.

B1: Endoplasmic reticulum aminopeptidase 1 (protein)
chain: MVFLPLKWSLATMSFLLSSLLALLTVSTPSWCQSTEASPKRSDGTPFPWNKIRLPEYVIPVHYDLLIHANLTTLTFWGTTKVEITASQPTSTIILHSHHLQISRATLRKGAGERLSEEPLQVLEHPRQEQIALLAPEPLLVGLPYTVVIHYAGNLSETFHGFYKSTYRTKEGELRILASTQFEPTAARMAFPCFDEPAFKASFSIKIRREPRHLAISNMPLVKSVTVAEGLIEDHFDVTVKMSTYLVAFIISDFESVSKITKSGVKVSVYAVPDKINQADYALDAAVTLLEFYEDYFSIPYPLPKQDLAAIPDFQSGAMENWGLTTYRESALLFDAEKSSASSKLGITMTVAHELAHQWFGNLVTMEWWNDLWLNEGFAKFMEFVSVSVTHPELKVGDYFFGKCFDAMEVDALNSSHPVSTPVENPAQIREMFDDVSYDKGACILNMLREYLSADAFKSGIVQYLQKHSYKNTKNEDLWDSMASICPTDGVKGMDGFCSRSQHSSSSSHWHQEGVDVKTMMNTWTLQKGFPLITITVRGRNVHMKQEHYMKGSDGAPDTGYLWHVPLTFITSKSDMVHRFLLKTKTDVLILPEEVEWIKFNVGMNGYYIVHYEDDGWDSLTGLLKGTHTAVSSNDRASLINNAFQLVSIGKLSIEKALDLSLYLKHETEIMPVFQGLNELIPMYKLMEKRDMNEVETQFKAFLIRLLRDLIDKQTWTDEGSVSERMLRSQLLLLACVHNYQPCVQRAEGYFRKWKESNGNLSLPVDVTLAVFAVGAQSTEGWDFLYSKYQFSLSSTEKSQIEFALCRTQNKEKLQWLLDESFKGDKIKTQEFPQILTLIGRNPVGYPLAWQFLRKNWNKLVQKFELGSSSIAHMVMGTTNQFSTRTRLEEVKGFFSSLKENGSQLRCVQQTIETIEENIGWMDKNFDKIRVWLQSEKLERM
In data set [1], B1 came in with a formation rate (%) of the peptide obtained by trimming (SEQ ID NO: 6), 1 hr later of 77.6%; a formation rate (%) of the peptide obtained by trimming (SEQ ID NO: 6), 2 hr later of 72.8%; a formation rate (%) of the peptide obtained by trimming (SEQ ID NO: 6), 4 hr later of 46%; a formation rate (%) of the peptide obtained by trimming (SEQ ID NO: 6), 8 hr later of 7.9%. In data set [2], this protein displayed a formation rate (%) of the peptide obtained by trimming (SEQ ID NO: 5), 1 hr later of 65.5%; a formation rate (%) of the peptide obtained by trimming (SEQ ID NO: 5), 2 hr later of 50.6%; a formation rate (%) of the peptide obtained by trimming (SEQ ID NO: 5), 4 hr later of 13.5%; a formation rate (%) of the peptide obtained by trimming (SEQ ID NO: 5), 8 hr later of 0%. In data set [3], this protein came in with a formation rate (%) of the peptide obtained by trimming (SEQ ID NO: 7), 1 hr later of 59.1%; a formation rate (%) of the peptide obtained by trimming (SEQ ID NO: 7), 2 hr later of 57.5%; a formation rate (%) of the peptide obtained by trimming (SEQ ID NO: 7), 4 hr later of 30.1%; a formation rate (%) of the peptide obtained by trimming (SEQ ID NO: 7), 8 hr later of 7.8%.
